Reference: the supplement of paper PMC10567573

B1: TRAF3IP2 (parent)
chain: PRPPSNPPARGTLKTSNLPEELRK
B2: TRIM15 (parent)
chain: QSSGKILLCPLCQEEEQAETPMAP

Variants of: B1
Experiment: protein stability index of a GFP-peptide fusion (GPS, HEK-293T) (PSI 1-6); higher = more stable
Conditions: c terminus: a fixed tail appended
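Also: lentivirally expressed fusions sorted by FACS into six bins by GFP to DsRed ratio, PSI derived from sequencing read proportions per bin multiplied by bin number.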

Protein stability index: each site, then its substitutions
S5: D 3.83; H 4.38; G 4.89; T 4.56; E 4.55; C 4.28; V 4.76; K 4.21; R 4.36; W 3.98; I 4.75; Y 3.84; Q 4.45; N 4.63; F 4.45; M 5; A 4.32; L 4.19
P3: G 4.82; K 4.88; C 5.15; S 4.95; D 5.07; A 5.13; V 4.79; H 4.02; T 4.9; Y 4.7; N 4.29; F 4.13; E 5.35; I 5.05; R 4.54; Q 4.2; M 4.42; L 4.5; W 4.83
P1: Y 4.46; L 4.67; F 4.31; M 5.07; G 4.89; W 4.76; N 4.59; R 4.44; K 4.63; H 4.64; S 4.62; Q 4.74; I 4.59; A 4.49; C 4.46; T 4.88; E 4.43; D 4.6; V 4.42
P4: A 4.79; V 4.53; W 4.61; K 4.91; Y 4.43; F 4.25; E 4.52; T 3.97; S 4.89; G 4.54; R 4.49; M 4.39; I 4.66; N 4.7; C 4.84; H 4.5; L 4.58; D 4.7; Q 4.88
N6: D 4.8; S 5.01; V 4.79; Y 4.99; R 4.49; G 4.65; Q 4.78; C 5.18; W 5.83; L 5.01; F 5.34; M 5.31; K 4.72; I 4.62; H 5.21; T 4.69; A 5.47; E 5.15
P7: K 4.53; I 4.5; W 4.02; T 4.76; D 4.97; E 4.81; N 5.17; R 4.75; Y 4.05; F 4.21; L 4.83; Q 4.56; A 4.8; S 4.89; V 4.11; M 4.09; G 4.58; C 4.4; H 4.27
R2: K 4.56; Q 4.59; E 4.85; L 4.2; F 5.09; M 5.08; V 4.63; S 5.25; G 5.12; C 5.19; W 4.85
P8: M 4.76; L 4.69; N 4.82; E 4.81; K 4.99; H 3.56; C 4.48; A 5.06; D 4.99; G 4.82; I 4.72; F 4.43

Variants of: B2
Experiment: as above
Conditions: c terminus: a fixed tail appended

Protein stability index, by site and new letter:
P24: D 3.79; K 3.17; S 3.53; M 3.31; A 4; C 2.47; Y 2.68; R 1.71; I 3.85; T 3.48; F 3.25; G 3.81; Q 3.41; H 3.88; E 4.29; L 3.09
A23: G 3.52; R 2.6; Q 3.21; E 4.61; W 2.91; S 3.86; L 2.97; H 3.67; N 3.5; M 3.69; T 3.9; K 3.63; V 4.12; Y 2.94; I 2.86; F 3.25
